Experimental data: patent US20260167679A1, “FUSION PROTEIN TARGETING MITOCHONDRIA, METHOD OF MAKING AND USE THEREOF” (UNIVERSITY OF ROCHESTER, priority 2020, published 2026)

Assays:
[1] = test system: C. elegans; assay: Lifespan of mtON-expressing worms; type: in vivo, Caenorhabditis elegans
Text: Light treatment began at day 1 of adulthood for all experiments, a, Survival curves of mtON-expressing animals (extrachromosomal array). […] One-way ANOVA with Tukey's test; n=30 animals for day 4 conditions and 40 animals for day 10. […] The dotted arrow represents the molecular mechanisms to be investigated that link Δψm to aged physiology.
A) survival curve with the same conditions as FIG. 15B, but with light intensity (0.005 mW/cm2) below the threshold for mtON activation (0.01 mW/cm2). […] B) Survival curves of mtON-expressing animals versus mtON-expressing animals in a long-lived genetic background containing a constitutively active AMPK mutation.
Strain APW32 expresses mtON as an extrachromosomal array (mtON ext. chr. array), and strain APW273 expresses mtON in single copy through CRISPR/Cas9 genome integration (mtON CRISPR). See methods section for genotype details. Light intensity was varied to maintain temperature as best as possible, and proximal temperature readings directly adjacent to assay plates are reported to show local temperature variability from different incubators and from different light sources. All incubators were set to 20° C.

[2] = test system: HEK293T cells; assay: Luciferase-based ATP assay in HEK293T cells; type: cell-based; conditions: 590 nm light, with or without 2-DG, vs cells in the dark
Method: (A) HEK293T cells expressing mtOn or GFP were illuminated with 590 nm light for 2 hours, followed by a luciferase-based ATP assay. (B) Same set-up as in (A), except HEK293T cells were treated with 10 mM 2-DG for 2 hours prior to illumination. (C) Activated CD8+ T cells were sorted based on GFP expression. GFP negative cells were used as the mock control. CD8+ T cells received 590 nm light for 30 minutes, followed by a luciferase-based ATP assay. All data shown as mean±SEM and analyzed by an unpaired t-test (n=4-7).
To test whether mitochondrial polarization driven by light-activated proton transport leads to enhanced ATP production (FIG. 9, panel A), the study transfected HEK293T cells and mouse CD8+ T cells with mtON, illuminated the cells (590±10 nm, 0.32 mW/mm^2 at 1 Hz), and immediately lysed them to detect ATP. 2-Deoxy-D-glucose (2-DG), a glucose analog, was used to inhibit glycolysis and thus mimic the glucose-deficient TME.
To test whether the mitochondrial polarization driven by light-activated proton transport leads to enhanced ATP production, we transfected HEK293T cells and mouse CD8+T cells with mtON, illuminated (590±10 nm, 0.32 mW/mm^2 at 1 Hz) them, and immediately lysed to detect ATP. 2-Deoxy-D-glucose (2-DG), a glucose analog, was used to inhibit glycolysis and thus mimic the glucose-deficient tumor microenvironment.

[3] = test system: C. elegans; assay: Healthspan: mobility on solid media and in liquid with age; type: in vivo, Caenorhabditis elegans
Text: Light treatment began at day 1 of adulthood for all experiments, a, Survival curves of mtON-expressing animals (extrachromosomal array). […] One-way ANOVA with Tukey's test; n=30 animals for day 4 conditions and 40 animals for day 10. […] One-way ANOVA with Tukey's test, day 10 no ATR light versus day 10 ATR light; P=0.002, all other significant comparisons, P=0.0001; n=32, 32, 40 and 40 animals for each violin from left to right. Data are median±quartiles. f, Model showing effects of mtON activation in vivo. The dotted arrow represents the molecular mechanisms to be investigated that link Δψm to aged physiology.

[4] = test system: C. elegans; assay: Hypoxia and reoxygenation with hypoxic preconditioning; type: in vivo, Caenorhabditis elegans; conditions: mtON activation during the short hypoxia (PC)
Method: Experiments were carried out using a hypoxic chamber (Coy Laboratory Products, 5%/95% H2/N2 gas, palladium catalyst) at 26° C. with 50-100 animals per plate. O2 was <0.01%. Hypoxic preconditioning (PC) duration was 4 h, and control animals were incubated at 26° C. in room air for the same time. 1 Hz illumination (Quantum LED, 0.02 mW/mm^2) was carried out during PC period or during the hypoxic period. Hypoxic exposure was for 18.5, 21 h after PC. Twenty-four hours after hypoxia exposure, animals that were moving or those that moved in response to a light touch to the head were scored as alive. Data from days where PC was at least 15% effective for both +ATR and −ATR were used. Animals supplemented with ATR were allowed to lay eggs onto plates with no ATR that were subsequently used for HR experiments to minimize confounding effects of ATR. ATR from the parent animal was sufficient to provide active mtON in progeny as tested by the azide toxin assay described above. […] FCCP dissolved in ethanol was deposited onto seeded NGM plates.

[5] = test system: mitochondria from HEK293T cells; assay: TMRE membrane potential of mitochondria isolated from HEK293T cells; type: biochemical; conditions: 540-600 nm light, absence of succinate
Text: Stimulation of mtON with light results in polarization of the mitochondrial inner membrane. To determine whether mtON reaches the inner mitochondrial membrane in the correct orientation and to confirm the functional responsiveness of mtON, the study measured the mitochondrial membrane potential (Dym) using TMRE. The study first isolated mitochondria from HEK293T cells expressing mtON and treated them with succinate, a complex II ETC substrate, to generate a maximal mitochondrial membrane potential as a positive control (FIG. 9, panel D).
Based on this model, light stimulation of mtON results in the polarization of the mitochondrial inner membrane. To determine whether mtON reaches the inner mitochondrial membrane in the correct orientation and to confirm the functional responsiveness of mtON, the mitochondrial inner membrane potential (Δψm) was measured using tetramethylrhodamine, ethyl ester (TMRE). TMRE is a lipophilic cationic dye that accumulates in the mitochondrial matrix proportional to the mitochondrial membrane potential. First, mitochondria were isolated from HEK293T cells expressing mtON and treated them with succinate, a substrate for the ETC (complex II), to induce a maximal mitochondrial membrane potential as a positive control.

[6] = test system: Drosophila melanogaster; assay: Drosophila lifespan; type: in vivo; conditions: activation of mtON (ATR, white light)
Text: (C) White light increases the lifespan of mtON+ATR (red) Drosophila compared to vehicle (ethanol, blue) Drosophila.

B1: mtON: fusion of the 187 N-terminal amino acids of mouse IMMT1 to the light-activated proton pump (Mac) from Leptosphaeria maculans (protein)
chain: MLRACQLSGVTVAAQSCLCGKFVLRPLRPCRRYSTSSSSGLTAGKIAGAGLLFVGGGIGGTILYAKWDSHFRESVEKTIPYSDKLFGMVLGSAPYTVPLPKKPVQSGPLKISSVSEVMKDSKLPVAQSQKTKGDTPASAASTGAAQIISAAGDTLSVPAPAVQHEDTIKTECPNTNEGKSTSETTEEPAGLIVDQFEEVLMKTSQLFPLPTATQSAQPTHVAPVPTVLPDTPIYETVGDSGSKTLWVVFVLMLIASAAFTALSWKIPVNRRLYHVITTIITLTAALSYFAMATGHGVALNKIVIRTQHDHVPDTYETVYRQVYYARYIDWAITTPLLLLDLGLLAGMSGAHIFMAIVADLIMVLTGLFAAFGSEGTPQKWGWYTIACIAYIFVVWHLVLNGGANARVKGEKLRSFFVAIGAYTLILWTAYPIVWGLADGARKIGVDGEIIAYAVLDVLAKGVFGAWLLVTHANLRESDVELNGFWANGLNREGAIRIGEDDGAR
modifications: Synthetic Complete mtON fusion protein sequence
With B1 the lifespan ([1]; CRISPR insertion, vs light control) was “significantly extended lifespan compared to the light control”, the lifespan ([1]; extrachromosomal array, +ATR+light from day 1 of adulthood) was “significantly extended lifespan” and the “light intensity threshold for mtON activation” value ([1]; in vivo) was 0.01 mW/cm2. The lifespan ([1]; light below the threshold to activate mtON (0.005 mW/cm2)) was “not extended”, the lifespan ([1]; long-lived worms with constitutively active AMPK signaling) was “further increased lifespan” and the “lifespan extension in presence of FCCP” value ([1]; mtON activation plus mitochondrial uncoupler FCCP) was “sensitive”. For the same molecule, the lifespan ([1]; mtON activation throughout life vs control populations) was “significant increase in lifespan”, the ATP [2] was “significant increase in ATP” and the “locomotion on solid media” value ([3]; day 4 and day 10, mtON activation) was “did not affect locomotion”. The “mobility in liquid with age” value ([3]; day 10, mtON activation) was “improved mobility”, the “protection conferred by hypoxic preconditioning” value [4] was “suppressed” and the “mitochondrial membrane potential (TMRE)” value [5] was “sufficient to rescue the mitochondrial membrane potential”. For the same molecule, the lifespan [6] was “extends Drosophila lifespan”.
